Laboratory results published in IntAct's records for PubMed 26031419.

B1: Glucocorticoid receptor (Homo sapiens), P04150-1 (parent)
chain: MDSKESLTPGREENPSSVLAQERGDVMDFYKTLRGGATVKVSASSPSLAVASQSDSKQRRLLVDFPKGSVSNAQQPDLSKAVSLSMGLYMGETETKVMGNDLGFPQQGQISLSSGETDLKLLEESIANLNRSTSVPENPKSSASTAVSAAPTEKEFPKTHSDVSSEQQHLKGQTGTNGGNVKLYTTDQSTFDILQDLEFSSGSPGKETNESPWRSDLLIDENCLLSPLAGEDDSFLLEGNSNEDCKPLILPDTKPKIKDNGDLVLSSPSNVTLPQVKTEKEDFIELCTPGVIKQEKLGTVYCQASFPGANIIGNKMSAISVHGVSTSGGQMYHYDMNTASLSQQQDQKPIFNVIPPIPVGSENWNRCQGSGDDNLTSLGTLNFPGRTVFSNGYSSPSMRPDVSSPPSSSSTATTGPPPKLCLVCSDEASGCHYGVLTCGSCKVFFKRAVEGQHNYLCAGRNDCIIDKIRRKNCPACRYRKCLQAGMNLEARKTKKKIKGIQQATTGVSQETSENPGNKTIVPATLPQLTPTLVSLLEVIEPEVLYAGYDSSVPDSTWRIMTTLNMLGGRQVIAAVKWAKAIPGFRNLHLDDQMTLLQYSWMFLMAFALGWRSYRQSSANLLCFAPDLIINEQRMTLPCMYDQCKHMLYVSSELHRLQVSYEEYLCMKTLLLLSSVPKDGLKSQELFDEIRMTYIKELGKAIVKREGNSSQNWQRFYQLTKLLDSMHEVVENLLNYCFQTFLDKTMSIEFPEMLAEIITNQIPKYSNGNIKKLLFHQK

Variants of: B1
Settings: with ncoa2_mouse Ncoa2, Q61026
ncoa2_mouse Ncoa2, Q61026, sequence (Q61026 whole entry): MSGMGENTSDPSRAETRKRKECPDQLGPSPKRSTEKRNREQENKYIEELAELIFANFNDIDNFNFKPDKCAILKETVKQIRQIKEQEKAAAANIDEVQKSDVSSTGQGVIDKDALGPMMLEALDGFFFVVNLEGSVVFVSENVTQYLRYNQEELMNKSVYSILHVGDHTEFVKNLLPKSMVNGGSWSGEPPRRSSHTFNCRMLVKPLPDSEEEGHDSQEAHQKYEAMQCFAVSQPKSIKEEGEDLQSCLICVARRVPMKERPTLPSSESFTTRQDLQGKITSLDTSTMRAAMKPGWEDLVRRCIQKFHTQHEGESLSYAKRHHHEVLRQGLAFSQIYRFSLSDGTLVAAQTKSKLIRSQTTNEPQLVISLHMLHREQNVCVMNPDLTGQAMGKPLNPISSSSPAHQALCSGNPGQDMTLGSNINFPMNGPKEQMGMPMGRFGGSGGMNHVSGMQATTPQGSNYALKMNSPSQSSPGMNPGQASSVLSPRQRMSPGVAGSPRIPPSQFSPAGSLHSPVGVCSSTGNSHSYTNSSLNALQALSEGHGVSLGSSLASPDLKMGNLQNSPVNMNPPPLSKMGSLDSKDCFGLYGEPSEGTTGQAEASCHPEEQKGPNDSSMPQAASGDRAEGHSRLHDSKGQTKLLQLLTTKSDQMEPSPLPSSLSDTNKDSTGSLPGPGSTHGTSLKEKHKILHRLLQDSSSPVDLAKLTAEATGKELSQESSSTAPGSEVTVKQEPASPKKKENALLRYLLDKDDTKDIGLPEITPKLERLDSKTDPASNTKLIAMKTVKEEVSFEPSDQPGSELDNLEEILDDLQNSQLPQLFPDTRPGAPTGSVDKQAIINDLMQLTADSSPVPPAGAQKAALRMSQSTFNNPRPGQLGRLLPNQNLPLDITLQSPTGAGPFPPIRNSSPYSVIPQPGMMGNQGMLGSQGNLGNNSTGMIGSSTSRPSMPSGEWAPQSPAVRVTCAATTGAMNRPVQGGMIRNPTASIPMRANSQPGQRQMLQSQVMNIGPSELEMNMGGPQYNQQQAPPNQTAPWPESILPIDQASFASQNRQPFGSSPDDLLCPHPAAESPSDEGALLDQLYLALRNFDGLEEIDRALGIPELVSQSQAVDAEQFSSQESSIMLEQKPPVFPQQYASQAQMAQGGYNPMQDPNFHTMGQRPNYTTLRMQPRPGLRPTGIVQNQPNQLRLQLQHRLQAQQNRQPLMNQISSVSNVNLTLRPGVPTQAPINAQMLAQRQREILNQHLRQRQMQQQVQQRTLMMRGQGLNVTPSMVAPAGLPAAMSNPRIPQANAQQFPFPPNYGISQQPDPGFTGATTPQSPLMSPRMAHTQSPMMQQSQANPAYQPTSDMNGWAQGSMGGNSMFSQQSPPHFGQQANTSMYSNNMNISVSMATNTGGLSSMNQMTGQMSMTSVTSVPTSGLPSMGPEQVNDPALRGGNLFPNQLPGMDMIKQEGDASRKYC

| Variant | effect of a mutation on the interaction |
| --- | --- |
| H726R | with no effect |

Variants of: B1
Settings: with ncoa2_mouse Ncoa2, Q61026
Remark: another data set of the same source

| Variant | effect of a mutation on the interaction |
| --- | --- |
| H726R | decreasing interaction strength |
